Positions count from the first letter of the chain named. Read-outs that look alike come from different tables or passages of the source.
Tests used:
[1] = target: T1, recombinantly expressed human FcεRIa-Fc protein (human, UniProt P12319 26-205); assay: blocking ELISA; blocking human IgE binding
T1 chain: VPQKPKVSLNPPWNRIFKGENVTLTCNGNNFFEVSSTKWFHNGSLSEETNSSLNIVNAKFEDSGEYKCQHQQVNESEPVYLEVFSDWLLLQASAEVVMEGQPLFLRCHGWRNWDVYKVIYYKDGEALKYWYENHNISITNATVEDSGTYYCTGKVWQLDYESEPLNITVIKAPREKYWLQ

[2] = target: T2, recombinant human FcεRIa extracellular region-mouse IgG2a Fc-6×His fusion protein (human, UniProt P12319 26-205); assay: BLI
T2 chain (part 1 of 2): T1 chain
T2 chain (part 2 of 2): HHHHHH

[3] = target: T1, recombinantly expressed human FcεRIa-Fc …; assay: blocking ELISA; blocking human IgE binding
[4] = target: T1, recombinantly expressed human FcεRIa-Fc …; assay: blocking ELISA; blocking human IgE binding

B1: binding protein DB-B64 (designed binder)
chain: CPAPELLGGPSVFLFPPKPKDTLMISRTPEVTCVVVDLAPSKGTVKFNWYVDGVEVHNAKTKPREKQRNGTLTVVSVLTVLHQDWLNGKEYKCKVTHPHLPRALEKTISKAKGQPREPQVYTLPPSREEMTKNQVSLTCLVKGFYPSDIAVEWESNGQPENNYKTTPPVLDSDGSFFLYSKLTVDKSRWQQGNVFSCSVMHEALHNHYTQKSLSLSPGK
Binder B1 has an EC50 [1] of 24.5 nM and a Kd [2] of 4.68 nM.

B2: binding protein DB366 (designed binder)
chain: CADSNPRGVSVFLFPPKPKDTLMISRTPEVTCVVVDLAPSKGTVKFNWYVDGVEVHNAKTKPREKQRNGTLTVVSVLTVLHQDWLNGKEYKCKVTHPHLPRALEKTISKAKGQPREPQVYTLPPSREEMTKNQVSLTCLVKGFYPSDIAVEWESNGQPENNYKTTPPVLDSDGSFFLYSKLTVDKSRWQQGNVFSCSVMHEALHNHYTQKSLSLSPGK
For B2, the IC50 [3] was 59.7 nM, the IC50 [4] was 16.2 nM and the EC50 [1] was 8.94 nM. The Kd [2] was 1.68 nM.

B3: binding protein DB-B63 (designed binder)
chain: B2 chain with K45N, K93R
With B3 the EC50 [1] was 6.52 nM.

B4: Her2-specific binding protein DB871 (antibody)
heavy: EVQLVESGGGLVQPGGSLRLSCAASGFTFTDYTMDWVRQAPGKGLEWVADVNPNSGGSIYNQRFKGRFTLSVDRSKNTLYLQMNSLRAEDTAVYYCARNLGPSFYFDYWGQGTLVTVSSASTKGPSVFPLAPSSKSTSGGTAALGCLVKDYFPEPVTVSWNSGALTSGVHTFPAVLQSSGLYSLSSVVTVPSSSLGTQTYICNVNHKPSNTKVDKKVEPKSCSRDFTPPTVKILQSSCDGGGHFPPTIQLLCLVSGYTPGTINITWLEDGQVMDVDLSTASTTQEGELASTQSELTLSQKHWLSDRTYTCQVTYQGHTFEDSTKKCADSNPRGVSVFLFPPKPKDTLMISRTPEVTCVVVDLAPSKGTVKFNWYVDGVEVHNAKTKPREKQRNGTLTVVSVLTVLHQDWLNGKEYKCKVTHPHLPRALEKTISKAKGQPREPQVYTLPPSREEMTKNQVSLTCLVKGFYPSDIAVEWESNGQPENNYKTTPPVLDSDGSFFLYSKLTVDKSRWQQGNVFSCSVMHEALHNHYTQKSLSLSPGK
light: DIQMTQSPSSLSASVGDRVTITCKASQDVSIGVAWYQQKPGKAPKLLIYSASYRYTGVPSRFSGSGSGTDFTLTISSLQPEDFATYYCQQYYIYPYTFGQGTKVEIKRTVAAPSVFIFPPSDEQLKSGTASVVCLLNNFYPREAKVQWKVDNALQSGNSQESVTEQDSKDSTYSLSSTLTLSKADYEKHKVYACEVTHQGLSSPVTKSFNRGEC
Work on B4 yielded an IC50 [3] of 61.2 nM and a Kd [2] of 1.91 nM.

B5: binding protein DB177 (designed binder)
chain: CSRDFTPPTVKILQSSCDGGGHFPPTIQLLCLVSGYTPGTINITWLEDGQVMDVDLSTASTTQEGELASTQSELTLSQKHWLSDRTYTCQVTYQGHTFEDSTKKCADSNPRGVSVFLFPPKPKDTLMISRTPEVTCVVVDLAPSKGTVKFNWYVDGVEVHNAKTKPREKQRNGTLTVVSVLTVLHQDWLNGKEYKCKVTHPHLPRALEKTISKAKGQPREPQVYTLPPSREEMTKNQVSLTCLVKGFYPSDIAVEWESNGQPENNYKTTPPVLDSDGSFFLYSKLTVDKSRWQQGNVFSCSVMHEALHNHYTQKSLSLSPGK
B5 gave an IC50 [4] of 18.4 nM.

B6: Her2-specific binding protein DB872 (antibody)
heavy: EVQLVESGGGLVQPGGSLRLSCAASGFTFTDYTMDWVRQAPGKGLEWVADVNPNSGGSIYNQRFKGRFTLSVDRSKNTLYLQMNSLRAEDTAVYYCARNLGPSFYFDYWGQGTLVTVSSASTKGPSVFPLAPSSKSTSGGTAALGCLVKDYFPEPVTVSWNSGALTSGVHTFPAVLQSSGLYSLSSVVTVPSSSLGTQTYICNVNHKPSNTKVDKKVEPKSCDKTHTCPPCPADSNPRGVSVFLFPPKPKDTLMISRTPEVTCVVVDLAPSKGTVKFNWYVDGVEVHNAKTKPREKQRNGTLTVVSVLTVLHQDWLNGKEYKCKVTHPHLPRALEKTISKAKGQPREPQVYTLPPSREEMTKNQVSLTCLVKGFYPSDIAVEWESNGQPENNYKTTPPVLDSDGSFFLYSKLTVDKSRWQQGNVFSCSVMHEALHNHYTQKSLSLSPGK
light: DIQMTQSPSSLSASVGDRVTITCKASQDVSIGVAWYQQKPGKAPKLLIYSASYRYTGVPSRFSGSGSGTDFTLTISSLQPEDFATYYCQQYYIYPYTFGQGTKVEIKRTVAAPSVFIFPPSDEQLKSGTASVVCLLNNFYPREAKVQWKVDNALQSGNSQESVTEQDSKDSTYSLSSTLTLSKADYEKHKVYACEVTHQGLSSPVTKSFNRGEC
In the case of B6, the IC50 [3] is reported as 77.4 nM and the Kd [2] is reported as 1.81 nM.

B7: binding protein DB364 (designed binder)
chain: DFTPPTVKILQSSCDGGGHFPPTIQLLCLVSGYTPGTINITWLEDGQVMDVDLSTASTTQEGELASTQSELTLSQKHWLSDRTYTCQVTYQGHTFEDSTKKCADSNPRGVSVFLFPPKPKDTLMISRTPEVTCVVVDLAPSKGTVKFNWYVDGVEVHNAKTKPREKQRNGTLTVVSVLTVLHQDWLNGKEYKCKVTHPHLPRALEKTISKAKGQPREPQVYTLPPSREEMTKNQVSLTCLVKGFYPSDIAVEWESNGQPENNYKTTPPVLDSDGSFFLYSKLTVDKSRWQQGNVFSCSVMHEALHNHYTQKSLSLSPGK
B7 showed an IC50 [4] of 15.7 nM and a Kd [2] of 1.78 nM.

B8: binding protein DB365 (designed binder)
chain: TKKCADSNPRGVSVFLFPPKPKDTLMISRTPEVTCVVVDLAPSKGTVKFNWYVDGVEVHNAKTKPREKQRNGTLTVVSVLTVLHQDWLNGKEYKCKVTHPHLPRALEKTISKAKGQPREPQVYTLPPSREEMTKNQVSLTCLVKGFYPSDIAVEWESNGQPENNYKTTPPVLDSDGSFFLYSKLTVDKSRWQQGNVFSCSVMHEALHNHYTQKSLSLSPGK
Work on B8 yielded an IC50 [4] of 12.8 nM and a Kd [2] of 0.719 nM.
